From US20170298121A1 (GlaxoSmithKline, published 2017) come the findings set out here.

The target of this experiment is T1, Rat Serum Albumin (rat, UniProt P02770 25-608).
T1 construct: Bought purified serum albumin; coupled to CM5 chips for BiaCore; also called RSA; rat SA
The experiment is described as follows: SPR (BiaCore). On the technique in general: In SPR one partner is held on a chip, and binding of the other changes the refractive index at the surface.

T1 sequence (P02770 25-608 limits assumed): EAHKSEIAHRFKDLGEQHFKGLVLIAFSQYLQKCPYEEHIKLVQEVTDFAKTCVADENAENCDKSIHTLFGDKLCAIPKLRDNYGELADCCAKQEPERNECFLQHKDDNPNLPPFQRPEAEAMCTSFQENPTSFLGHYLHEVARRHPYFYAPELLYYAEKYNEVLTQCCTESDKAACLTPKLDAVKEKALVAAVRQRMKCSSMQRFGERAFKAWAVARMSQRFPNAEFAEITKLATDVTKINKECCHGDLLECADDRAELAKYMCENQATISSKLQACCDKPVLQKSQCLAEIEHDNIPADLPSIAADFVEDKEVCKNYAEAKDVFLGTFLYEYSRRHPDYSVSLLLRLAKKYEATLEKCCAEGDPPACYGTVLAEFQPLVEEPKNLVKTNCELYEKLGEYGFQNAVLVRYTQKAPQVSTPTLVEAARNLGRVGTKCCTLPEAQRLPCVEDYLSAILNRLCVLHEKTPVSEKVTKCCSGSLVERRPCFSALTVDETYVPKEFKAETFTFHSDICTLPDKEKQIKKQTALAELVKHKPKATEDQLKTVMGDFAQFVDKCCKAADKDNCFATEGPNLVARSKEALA

B1: DOM7h-11-12/DOM1m-21-23 fusion DMS number 5516 (other)
chain: EVQLLESGGGLVQPGGSLRLSCAASGFTFNRYSMGWLRQAPGKGLEWVSRIDSYGRGTYYEDPVKGRFSISRDNSKNTLYLQMNSLRAEDTAVYYCAKISQFGSNAFDYWGQGTQVTVSSASTSGPSDIQMTQSPSSLSASVGDRVTITCRASRPIGTMLSWYQQKPGKAPKLLILFGSRLQSGVPSRFSGSGSGTDFTLTISSLQPEDFATYYCAQAGTHPTTFGQGTKVEIKRAAAEQKLISEEDLN
notes: DOM1m-21-23 - ASTSGPS - DOM7h-11-12 - myc tag; also called DMS5516
Turning to B1, the “fold decrease in affinity against the unfused ALBUDAB” value is 2 fold.

B2: DOM7h-11-15/DOM1m-21-23 fusion DMS number 5517 (other)
chain: EVQLLESGGGLVQPGGSLRLSCAASGFTFNRYSMGWLRQAPGKGLEWVSRIDSYGRGTYYEDPVKGRFSISRDNSKNTLYLQMNSLRAEDTAVYYCAKISQFGSNAFDYWGQGTQVTVSSASTSGPSDIQMTQSPSSLSASVGDRVTITCRASRPIGTMLSWYQQKPGKAPKLLILAFSRLQSGVPSRFSGSGSGTDFTLTISSLQPEDFATYYCAQAGTHPTTFGQGTKVEIKRAAAEQKLISEEDLN
notes: DOM1m-21-23 - ASTSGPS - DOM7h-11-15 - myc tag; also called DMS5517; DOM1m21-23-DOM7h11-15
Consider B2, for which the “fold decrease in affinity against the unfused ALBUDAB” value stood at 2 fold.
